In PMC9456187, “The Ambivalence of Connexin43 Gap Peptides in Cardioprotection of the Isolated Heart against Ischemic Injury” (International Journal of Molecular Sciences, 2022):
Blank lines part the entries; values can stand above or below the binder they belong to.

Assays:
[1] = target: RadA-EL1 (extracellular loop 1 of connexin43 grafted into the monomeric ATPase domain of Pyrococcus furiosus … (Pyrococcus furiosus | , Only the grafted connexin43 EL1 loop (the binding part) is given. It was displayed on the His-tagged monomeric RadA ATPase domain of Pyrococcus furiosus, treated here as a carrier. The scaffold limits)); assay: SPR; Biacore T200; his-tagged RadA-EL1 captured on NTA surface (about 200 RU) as ligand, Gap27 injected as analyte at 30 µL/min; 25 °C; 50 mM HEPES pH 7.5, 500 mM NaCl, 0.005% Tween-20; reference channel without nickel; 1:1 binding model; settings: both partners purified
Sequence of RadA-EL1 (extracellular loop 1 of connexin43 grafted into the monomeric ATPase domain of Pyrococcus furiosus … (Pyrococcus furiosus | , Only the grafted connexin43 EL1 loop (the binding part) is given. It was displayed on the His-tagged monomeric RadA ATPase domain of Pyrococcus furiosus, treated here as a carrier. The scaffold limits)) (chain, as listed by the source): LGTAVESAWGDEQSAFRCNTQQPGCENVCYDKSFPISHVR

[2] = target: RadA-EL2 (extracellular loop 2 of connexin43 grafted into the monomeric ATPase domain of Pyrococcus furiosus … (Pyrococcus furiosus | , Only the grafted connexin43 EL2 loop (the binding part) is given. It was displayed on the His-tagged monomeric RadA ATPase domain of Pyrococcus furiosus, treated here as a carrier. The scaffold limits)); assay: SPR; Biacore T200; his-tagged RadA-EL2 captured on NTA surface (about 200 RU) as ligand, Gap26 injected as analyte at 30 µL/min; 30 °C; 50 mM HEPES pH 7.5, 500 mM NaCl, 0.005% Tween-20, 0.1 mM TCEP; reference channel without nickel; 1:1 binding model; settings: both partners purified
Sequence of RadA-EL2 (extracellular loop 2 of connexin43 grafted into the monomeric ATPase domain of Pyrococcus furiosus … (Pyrococcus furiosus | , Only the grafted connexin43 EL2 loop (the binding part) is given. It was displayed on the His-tagged monomeric RadA ATPase domain of Pyrococcus furiosus, treated here as a carrier. The scaffold limits)) (chain, as listed by the source): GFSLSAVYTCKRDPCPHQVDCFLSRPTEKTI

- Kd [1]: 6 µM
- koff [1]: 0.061 s⁻¹
B1: Gap27 (peptide)
peptide: SRPTEKTIFII
notes: connexin43 mimetic peptide, 11 amino acids, analogue of the second extracellular loop (EL2) of connexin43; The peptide was tested on the RadA-EL1 construct; also called G27; connexin mimetic peptide Gap27; source: bought: Pepnome Inc., Hong Kong (peptide)

- Kd [2]: 8 µM
- koff [2]: 0.0043 s⁻¹
B2: Gap26 (peptide)
peptide: VCYDKSFPISHVR
notes: connexin43 mimetic peptide, 13 amino acids, analogue of the first extracellular loop (EL1) of connexin43; The peptide was tested on the RadA-EL2 construct; also called G26; connexin mimetic peptide Gap26; source: bought: Pepnome Inc., Hong Kong (peptide)
